Reference: patent US12194082B2, “Compositions and methods for treatment of homocystinuria” (THE REGENTS OF THE UNIVERSITY OF COLORADO, priority 2016, dated 2025)
Like-named read-outs stand apart in the source and are kept apart here.

Experiments:
I278T mice = assay: DEXA bone mineralization and body composition in I278T mice; format: in vivo, mouse; details: 7.5 mg/kg SC 3x/week from 6 to 13 months of age
Experimental: A PIXImusII DEXA scanner (GE Lunar Medical Systems) specifically designed for scanning small animals such as mice was used for DEXA analysis. This machine enabled quick and efficient determination of the body composition (lean, fat mass, and bone density) of a mouse before terminal tissue extraction procedures. Mice were fasted for 4 hours prior to the DEXA measurement to remove food from the gastro-intestinal tract. Mice were then anesthetized using IP bolus injection of 60 mg/kg ketamine and 15 mg/kg xylazine and placed on a tray in the DEXA machine. After the measurement was done (3˜5 minutes), the mice were removed from the DEXA machine and used in terminal procedures, such as tissue extractions.
The bone mineral density (BMD) and bone mineral content (BMC) were analyzed by DEXA for three groups of I278T mice: +/− healthy heterozygous controls (n=10M+11F), −/− affected homozygous I278T controls (n=6M+8F), and 20NHS PEG-htCBS C15S-treated I278T mice (n=6M+6F). The 20NHS PEG-htCBS C15S (C15S/ME-200GS)-treated I278T mice were administered 7.5 mg/kg subcutaneously (SC) 3 times per week from the age of 6 months up to the age of 13 months. FIG. 17A, FIG. 17B, FIG. 17C, FIG. 17D, and FIG. 17E are graphs comparing BMD (g/cm^2), BMC (g), total mass (g), lean mass (g), and fat content (%), respectively, among the three groups of mice. […]

[1] = cynomolgus monkey, in vivo
Experimental: The pharmacokinetic (PK) parameters were calculated using a non-compartmental curve stripping model which resolves a curve into a series of exponential terms corresponding to the absorption, distribution and elimination phases occurring during the time course of the enzyme in the blood. The curve stripping approach assumes that the disposition phases of the drug follow apparent first-order kinetics, which is evidenced by the linearity in the terminal portion of a semi-log plot. These calculations were made using a modeling program called PK Solutions 2.0 (Summit Solutions, Montrose, CO) using the mean plasma enzyme activity for each route of administration. The bioavailability was calculated by dividing the area under the curve (AUC) for the SC or IP route by the AUC observed after IV administration.
For the single dose PK study, three experimental groups of 4 (n=2M+2F) monkeys each were used to conduct the experiments. The first group received 2 mg/kg 20NHS PEG-htCBS C15S via IV injection. Blood was collected at 0, 0.083, 0.16, 0.25, 0.5, 1, 2, 4, 8, 24, 72, 120, and 192 hours post IV injection. The second and third groups received either 2 mg/kg or 6 mg/kg 20NHS PEG-htCBS C15S via SC injection. Blood was collected at 0, 1, 2, 4, 8, 24, 48, 72, 96, 120, 192, 240, and 336 hours post SC injection.

Hcy, Cth, Cys, and Met = assay: Plasma metabolites in I278T mice of the DEXA study; format: in vivo; details: continuous long-term administration
Experimental: Plasma metabolites were determined in the same mice/groups as described above and compared to each other. The left bar represents the level of metabolite for +/− healthy controls, and the middle bar represents the level of metabolite for −/− affected controls. The levels of each metabolite in 20NHS PEG-htCBS C15S-treated mice is represented by the right bar.

KO mice = assay: Survival of KO mice treated with PEGylated htCBS C15S conjugates; format: in vivo, mouse
Experimental: A Kaplan Meyer survival curve was plotted of KO mice injected three times weekly with 7.5 mg/kg htCBS C15S PEGylated with ME-200MA0B (n=24), ME-400MA (n=31=13F+18M), or ME-200GS (n=28=14F+14M), and a group of KO mice (n=44) that was injected with PBS as a control. Lactating mothers were maintained on betaine water, and after weaning, the pups (day 21) were put on regular water with no betaine. The ability of the injected enzyme to rescue KO pups was tested.
After an initial 35 days (5 weeks) long treatment to prevent neonatal lethality of KO mice, the KO mice treated with 20NHS PEG-htCBS C15S were divided into two groups. One group (5 W) stopped receiving any treatment apart from the initial one, while the other group (CONT) continued with the same regimen for up to 120 days of age (7.5 mg/kg, SC, 3× a week).

[2] = CBS enzyme activity assay, specific activity of pure enzyme; format: biochemical; details: lots used in osmotic pumps
Experimental: CBS activity was determined by a radioisotope assay with C^14-labeled serine as a substrate. Ten μl (total 490 ng) of pure htCBS in dilution buffer (0.1 M Tris-HCl pH=8.6, 1 mM DTT, 10 μM PLP, 0.5 mg/ml BSA) or 10 μl of plasma were added to 85 μl of reaction mixture containing 0.1 M Tris-HCl pH=8.6, 10 mM L-serine, 0.5 mM PLP, 0.5 mg/ml BSA and 0.3 μCi (for pure enzyme) or 0.45 μCi (for plasma) of L-[C^14(U)]-Serine. Samples were incubated for 5 min at 37° C. and reaction was initiated by addition of 5 μl of 0.2 M Hcy (10 mM final concentration). Following 30 min of incubation at 37° C., a 20 μl aliquot of the assay mixture was applied onto a grade 3 CHR Whatman (NJ, USA) paper. Assay initiation and sampling of the resulting mixture were staggered so that each reaction time was 30 minutes. Descending paper chromatography was used to isolate the radioactive product (Cth) from a labeled substrate (Ser). The C^14-cystathionine formed in the reaction was separated from C^14-serine by an overnight descending paper chromatography in 2-propanol/formic acid/H2O (75:5.7:18.9 v/v). Radioactivity in the area of the marker cystathionine (detected by staining the marker lane with ninhydrin) was determined by cutting the chromatogram into strips that were submerged in 5 ml of Opti-fluor scintillation cocktail (PerkinElmer, MA, USA) and counted in a Beckman LS-3801 scintillation counter. An enzyme-free sample was used as a blank to monitor the background radioactivity that was then subtracted from each sample. For pure enzyme, specific activity values are expressed as enzyme units (the amount of enzyme that produces 1 μmol of cystathionine/hour) per mg of CBS, and for plasma samples as units per μl plasma.

[3] = Pharmacokinetics of PEGylated htCBS C15S in HO mice (plasma CBS activity); format: in vivo
Experimental: For 20NHS PEG-htCBS C15S, HO mice were administered SQ a dose of 5, 10 or 15 mg/kg dose or were administered IV a dose of 10 mg/kg. For 400MA-htCBS C15S, HO mice received a single dose of 10 mg/kg either SC or IV of one of the three forms: (i) a mixture of all species, where no separation of individual forms has been attempted (mix), (ii) a homoPEGylated specie (Peak 1), and (iii) a hetero/hemiPEGylated species (Peak 2).
Both male and female HO mice were used in this example, and each group contained 3 to 4 mice. Two groups of mice designated “A” and “B” were used for each route of administration to minimize the blood volume taken from any one mouse. For SC administration, blood was collected from group A at 0.5, 3, 24, and 72 hours post-injection and from group B at 1, 6, 48, and 96 hours post-injection. For IV administration, blood was collected from group A at 0.25, 1, 6, and 48 hours post-injection and from group B at 0.5, 3, 24, and 72 hours post-injection.

With “20NHS PEG-htCBS C15S: htCBS C15S PEGylated with ME-200GS PEG (20 kDa linear NHS ester-activated PEG)” the “bone mineralization (BMD) vs healthy heterozygous controls” value (I278T mice) was “indistinguishable”, the “osteoporosis and body composition (DEXA)” value (I278T mice) was “prevented profound osteoporosis and improved body composition” and the AUC0-t/dose ([1]; iv, 2 mg/kg) was 2971 ± 78 mU-h/μl/(mg/kg). The AUC/dose ([1]; sc) was 2744 (mU-h/mL)/(mg/kg), the cmax/dose ([1]; sc) was 20 (mU/μL)/(mg/kg) and the “elimination half-life (T1/2)” value ([1]; sc) was 73 h. The AUC0-t/dose ([1]; sc, 2 mg/kg) was 2761 ± 160 mU-h/μl/(mg/kg), the cmax/dose ([1]; sc, 2 mg/kg) was 20.4 ± 1.0 mU/μl/(mg/kg) and the t1/2-A ([1]; sc, 2 mg/kg) was 7.9 ± 1.0 h. The t1/2-E ([1]; sc, 2 mg/kg) was 72.9 ± 1.1 h, the AUC0-t/dose ([1]; sc, 6 mg/kg) was 2727 ± 119 mU-h/μl/(mg/kg) and the cmax/dose ([1]; sc, 6 mg/kg) was 19.2 ± 1.3 mU/μl/(mg/kg). For the same substance, the t1/2-A ([1]; sc, 6 mg/kg) was 9.7 ± 1.0 h, the t1/2-E ([1]; sc, 6 mg/kg) was 72.8 ± 1.7 h and the “Hcy, Cth, Cys and Met plasma levels vs untreated −/− mice” value (Hcy, Cth, Cys, and Met) was “significantly improved”. For the same substance, the survival (KO mice; 7.5 mg/kg three times weekly, day 21) was “about 97%”, the “survival of all mice” value (KO mice; continuous 7.5 mg/kg SC 3x a week up to 120 days of age) was “at least 119 days” and the “survival at 119 days of age” value (KO mice; treatment terminated after initial 35 days) was “about 85%”. The “specific activity of administered enzyme” value [2] was 673.9 ± 13.2 U/mg, the “specific activity of administered enzyme” value ([2]; listed as ME-200GS PEGylated htCBS C15S) was 623.2 ± 16.4 U/mg and the “E Half-life” value ([3]; 10 mg/kg IV) was 47.6 ± 14.6 h. For the same substance, the “average circulating time of a single enzyme molecule (MRT)” value ([3]; mouse, in vivo) was 44 to 194 h, the “AUC(0-t) (obs area)” value ([3]; mouse, in vivo, iv, 10 mg/kg) was 7431 ± 154 mU-hr/μL and the “CL (obs area)” value ([3]; mouse, in vivo, iv, 10 mg/kg) was 1346 ± 27.3 µL/h. For the same substance, the “MRT (area)” value ([3]; mouse, in vivo, iv, 10 mg/kg) was 52 ± 13 h, the “cmax (obs)” value ([3]; mouse, in vivo, iv, 10 mg/kg) was 371.6 ± 11.2 mU/μL and the AUC/dose ([3]; mouse, in vivo, sc) was 612 (mU-h/mL)/(mg/kg). For the same substance, the T1/2 ([3]; mouse, in vivo, sc) was 20 h, the absorption half-life ([3]; mouse, in vivo, sc) was 5 to 12 h and the “bioavailability in HO mice” value ([3]; mouse, in vivo, sc) was 52-83%. For the same substance, the cmax/dose ([3]; mouse, in vivo, sc) was 10 (mU/μL)/(mg/kg), the tmax ([3]; mouse, in vivo, sc) was 24 h and the “A Half-life” value ([3]; mouse, in vivo, sc, 5 mg/kg) was 5.3 ± 1.1 h. For the same substance, the AUC in mice ([3]; mouse, in vivo, sc, 5 mg/kg) was 3060 mU−h/mL, the “CL (obs area)” value ([3]; mouse, in vivo, sc, 5 mg/kg) was 1636 ± 86 µL/h and the “E Half-life” value ([3]; mouse, in vivo, sc, 5 mg/kg) was 137 ± 95 h. The “MRT (area)” value ([3]; mouse, in vivo, sc, 5 mg/kg) was 194 ± 128 h, the cmax/dose ([3]; mouse, in vivo, sc, 5 mg/kg) was 10.3 and the “A Half-life” value ([3]; mouse, in vivo, sc, 10 mg/kg) was 12.7 ± 0.6 h. For the same substance, the Bioavailability ([3]; mouse, in vivo, sc, 10 mg/kg) was 64.6%, the “CL (obs area)” value ([3]; mouse, in vivo, sc, 10 mg/kg) was 2113 ± 280 µL/h and the “E Half-life” value ([3]; mouse, in vivo, sc, 10 mg/kg) was 17.5 ± 1.27 h. The “MRT (area)” value ([3]; mouse, in vivo, sc, 10 mg/kg) was 44.8 ± 1.7 h, the “cmax (obs)” value ([3]; mouse, in vivo, sc, 10 mg/kg) was 89.9 ± 10.2 mU/μL and the cmax/dose ([3]; mouse, in vivo, sc, 10 mg/kg) was 9.0. For the same substance, the “A Half-life” value ([3]; mouse, in vivo, sc, 15 mg/kg) was 11.9 ± 1.2 h, the Bioavailability ([3]; mouse, in vivo, sc, 15 mg/kg) was 51.6% and the “CL (obs area)” value ([3]; mouse, in vivo, sc, 15 mg/kg) was 2609 ± 72 µL/h. For the same substance, the “E Half-life” value ([3]; mouse, in vivo, sc, 15 mg/kg) was 22.0 ± 1.7 h, the “MRT (area)” value ([3]; mouse, in vivo, sc, 15 mg/kg) was 49.0 ± 1.4 h and the “cmax (obs)” value ([3]; mouse, in vivo, sc, 15 mg/kg) was 104.2 ± 11.3 mU/μL. For the same substance, the cmax/dose ([3]; mouse, in vivo, sc, 15 mg/kg) was 6.9 and the “half-life determinations in the SC dose groups” value ([3]; mouse, in vivo, sc, 15 mg/kg) was 17.5 to 137 h.
